The record followed here is the DeepSol protein solubility set.

This data set is described as follows: soluble on expression in E. coli; label from the status in PepcDB or PDB records.
For “MDGGFVRVCLLASGSKGNSLFVESDGTRVLIDAGLSAREIVRRLAVIEVEPADLDGLFISHEHVDHVRGVGVLARKYRLPVHVSYPTHHEVREGFGDAPVVEFESGYSFGFRDLLIDPFPITHDACDPVGFTIESKEGKVGIATDLGTATRLVADKLKRCRVLVLESNHDEEMLMGGPYPWHLKQRIKSRHGHLSNNDSAALLAEVLHPGLEGLFLAHLSEVNNDPAVAKEVAENLLVAQTTCSPRLIVGDQYRPSETLTLLEHHHHHH”, the “soluble on expression in E. coli” value is listed as “soluble”.
Turning to “QYCWQHRFPTGYFSICDRYMNGTCPEGNSCKFAHGNAELHEWEERRDALKMKLNKA”, the “soluble on expression in E. coli” value was “soluble”.
On to “MDASYSSSRPKKLNYTSYTSLKSVLKFLSVKKREQIHIHIPELRSVNALLPYAHEEVILDKFEIMIQNRSYLFKKLAEKAPKPEGVARRRPEYEYAEYNRLLVMDLGPPSLFDMNDLHHLWRPMGNQGPDRLSFGDLDSLEKRRLRFRRENRLQDSSEHGRTGNCEITISEEDGTAITVTKEIPVDIAYEKIFDAFFSNGSRIKLLKVQSFPDFLMRKDLLTLKVREIDCSSTASIDILELAPFLDHSSLKKLTLNVTNTNVDLLMLPLVQNCPVLRIVEAGTFLSRMLKTTLLSALQNQKLEIFPDIVIIESFPQLVQSWATSSRPIGSLVQVGIREDYKEVLDILDFLKESHGAHPAIIKKLENTDFSNGLSMLIDGDLELAIYGGGKISEEGLTRPQPCKWSLCMEVMKRGDTIPR”, for which the “soluble on expression in E. coli” value is “not soluble”.
Next, “MKLGFIGLGIMGSPMAINLARAGHQLHVTTIGPVADELLSLGAVNVETARQVTEFADIIFIMVPDTPQVEDVLFGEHGCAKTSLQGKTIVDMSSISPIETKRFAQRVNEMGADYLDAPVSGGEIGAREGTLSIMVGGEQKVFDRVKPLFDILGKNITLVGGNGDGQTCKVANQIIVALNIEAVSEALVFASKAGADPVRVRQALMGGFASSRILEVHGERMINRTFEPGFKIALHQKDLNLALQSAKALALNLPNTATCQELFNTCAANGGSQLDHSAMVQALELMANHKLS”: “soluble”; “MFDIPGLSTGDFHGFPSLLIQTPFSHAAISLFGGQLLSFVPSGGEEVIWLSPLVQPPPTAIRGGIPICWPYFGRQGQRDTMPAHGFVRTVPWQQVESCQENDGSLFLVLAPPPLKHLGLHLRMTLRIGRTLEQELATENISHAPISFTQALHNYFRVSNALQVTVQGLDGVEYLDKFEGYTQRHRQQGHWTLQDPRDPGRADRIYVDTSGHYVLVDPLFSRRIVLTTEGSHSLVVWNPGHAGASNMIDVADGWRDYLCLEPANAGPDEIELLPGARHVLRQSIAIAPL”: “soluble”.
On to “SNAMKDKIIDNAITLFSEKGYDGTTLDDIAKSVNIKKASLYYHFDSKKSIYEQSVKCCFDYLNNIIMMNQNKSNYSIDALYQFLFEFIFDIEERYIRMYVQLSNTPEEFSGNIYGQIQDLNQSLSKEIAKFYDESKIKMTKEDFQNLILLFLESWYLKASFSQKFGAVEESKSQFKDEVYSLLNIFLKK”, for which the “soluble on expression in E. coli” value is reported as “soluble”.
Next, “MTTTPIADQAAVLAEGMADQTPSEALEAFGAEQAELDAAGVPSGIATAGSLMPDASLLDVHGNATTLQQVREGRPAVVVFYRGAWCPYCNLALRTYERELAPRLAERGVSMIAVSPQRPDGSLTMAQTNDLSYDVLSDPGNHIGRALGIVTRPTDRVQHAQASLGLDLTEVNADGTPDILMPTVAIVDAEGVLRWIDVHPNYVTRSEPARILEALARAVR”: “not soluble”; “MSQVSTEFIPTRIAILTVSNRRGEEDDTSGHYLRDSAQEAGHHVVDKAIVKENRYAIRAQVSAWIASDDVQVVLITGGTGLTEGDQAPEALLPLFDREVEGFGEVFRMLSFEEIGTSTLQSRAVAGVANKTLIFAMPGSTKACRTAWENIIAPQLDARTRPCNFHPHLKK”: “soluble”; “MGSDKIHHHHHHMLKGIPHDSPLYEVDEDRGIEYRNCDAIVGFFTIKGDVSDLLPEGLKAYSKPAQGGIWISHYSFSTVGEYHEYLTVIQVEDEQGDMGYYIPYIYVTNDSALAAGRELAGAPKKLANIGLVKELDVVMGYLERPTGKRLVTFVMKPNTRALGGMIDFVLPKPTYLYSVRHLPPIKGKGGVTQLVKWYADIDFHVDPKGERAIFMGPGNITYDSPSVIDPVHKVEIDTLMTALYFQFDMKLGFVDILREY”: “not soluble”.
Next, “MAHHHHHHMNTHVISVGSRWVHHEVTQALRQRRGVRVEVNEELQHCDFASRASSVLYCDAHSAEMQRDQASLVLRLQEARQRCGTQPVILMVRMDSDNEVSLERLSWLNLECGVAQQCGLILVWSLDDAVQYLASLAAYAVTSLEFTGAARPYVGDAPLPVLVDALTQTPQVVTRNDVVRIANRKTSVADALMSEASEWEGIAGLGRKKAARLQHLFRTPFLSSQQRIDSFVPATGGSSFSTASKAAESHLSQPTGESTARPTEALSVDTAVTTEGRRRMMSALQQRLDKEDEEGGE”: “not soluble”; “MTVKVCVCGGGNGAHTLSGLAASRDGVEVRVLTLFADEAERWTKALGADELTVIVNEKDGTQTEVKSRPKVITKDPEIAISGADVVILTVPAFAHEGYFQAMAPYVQDSALIVGLPSQAGFEFQCRDILGDKAAAVSMMSFETLPWACRIKEFGRKVEVLGTKSVLAASLIKGTAKTVDPLSTLQMLHGAEPVFRLAKHFLEMLIMSYSFVHPAILFGRWGSWDGKPVPEAPLFYQGIDQATADMLTACSNECKDVANAIMAACPGNDLSDVKDIYQWYLEYYHEDIQDDHDLYHAITTNKSYKGLVHPVKAVDGGVAPDFGNRYLTEDIPMGMIVFKGVAIAAGVAIPSNDKLIMWAQEKIGKEYLVDGALTGKDVATTRCPQRYGFNTLDAILTGKKHHHHH”: “soluble”.
As for “MPEEESIDIKFRLYDGSDIGPFRYSAASTVDFLKQRVVSDWPKGKTVVPKGINEVKLISSGKILENNKTVGQCKTPFGDIAGGVIVMHVVVQPSLAKSKTEKKVDKAPKAVICTCTIL”, the entry is “soluble”; as for “MANVVAEGAYPYCRLTDQPLSVDEVLAAVSGPEQGGIVIFVGNVRDHNAGHDVTRLFYEAYPPMVIRTLMSIIGRCEDKAEGVRVAVAHRTGELQIGDAAVVIGASAPHRAEAFDAARMCIELLKQEVPIWKKEFSSTGAEWVGDRP”, “soluble”.
On to “MPTTRHYDIVIIGGGIQGAAVAQAAAALGYNVLVLEKTALAAGTSSRSSKLIHGGLRYLESGQFGLVWESLKERAALLRLAPSLVRLQPFHIPIYDQTSRDTLTIRAGLSLYALLAGLSKGAGFHSIPRRRWGELDGLSTRGLRHVFQYWDAQTDDQALTRAIMHSASSLGVELHCPAEFIHARISGEICEIEFLENNQAYQCTASSLVNAAGPWVSQVAERISPAPPAYPVELVQGTHLILEGSLDKGCYYLESPQDRRAIFALPWKQHILLGTTETVFEGAPDKALPLVSEENYLLGCFRYYFPDHGATVRERFTGLRVLPVSRNNPFGRSRETHLQCDSPESPRIVGIYGGKLTVCRATARKVLHTLRPSLPVRIPKADISQLTLKLPLEHHHHHH”, for which the “soluble on expression in E. coli” value is recorded as “soluble”.
Turning to “MAHHHHHHMETTAEEISAMLNENEHALIGELQGKYDFINFNEMKNYKEKKLHHELTLEVQKFINNKNVQVKDKFRLFYTLLSPLMSKLKKTIYAELLYIVTANFDANWTISYLKESEKNLENDKDAIIIYRCILILKYIELGDFKSCENEIENTKNLLQGVIGLNVVAHKFYNFAIMKYYNVLNKSDLFVKYALLYLAYTPLNDLDEADKIEIGTHICMHSIISEDVYNIGEIIQLPLINVCLKNNEQTNWLYQLIYIYNEGNIEVFNQVVHKYEENIKNSLLKDYKKNMIKKITLLALMDLAFKKKKQRSDISFEEIAQHCKVDVNEVEKMLITAKSKNILTCQIDEIQKSVKITWVKPRVLNNEKIFFMKESIDKWITHSKNLLTYMEDLSVELLIS”, the “soluble on expression in E. coli” value is on record as “not soluble”.
As for “MTQETFTATTRVKRGLADMLKGGVIMDVVTPEQARIAEDAGASAVMALERVPADIRAQGGVARMSDPDLIEGIVNAVSIPVMAKARIGHFVEAQILESLGVDFIDESEVLSPADYVNHIDKWNFDVPFVCGATNLGEALRRITEGAAMIRSKGEAGTGDVSEAVKHLRTIRGEINRLRSMDEDQLYVAAKEIQAPYDLVREVAATGKLPVTLFVAGGVATPADAALVMQMGAEGVFVGSGIFKSGNPAARAAAIVKATTMYDDPAAIAEVSRGLGEAMVGINVADVPAPHRLAERGW”, the entry is “not soluble”.
